# In PMC4596688, “Structural determinants of nuclear export signal orientation in binding to exportin CRM1” (eLife, 2015):
# Molecular target: Full-length human CRM1 (HsCRM1), O14980
# Assay: GST pull-down, SDS/PAGE band intensity
# Conditions: chain shown with the change; excess ScRanGTP; triplicate experiments; parent: est. 100; read off a plot
# Sequence of Full-length human CRM1 (HsCRM1), O14980 (O14980 whole entry): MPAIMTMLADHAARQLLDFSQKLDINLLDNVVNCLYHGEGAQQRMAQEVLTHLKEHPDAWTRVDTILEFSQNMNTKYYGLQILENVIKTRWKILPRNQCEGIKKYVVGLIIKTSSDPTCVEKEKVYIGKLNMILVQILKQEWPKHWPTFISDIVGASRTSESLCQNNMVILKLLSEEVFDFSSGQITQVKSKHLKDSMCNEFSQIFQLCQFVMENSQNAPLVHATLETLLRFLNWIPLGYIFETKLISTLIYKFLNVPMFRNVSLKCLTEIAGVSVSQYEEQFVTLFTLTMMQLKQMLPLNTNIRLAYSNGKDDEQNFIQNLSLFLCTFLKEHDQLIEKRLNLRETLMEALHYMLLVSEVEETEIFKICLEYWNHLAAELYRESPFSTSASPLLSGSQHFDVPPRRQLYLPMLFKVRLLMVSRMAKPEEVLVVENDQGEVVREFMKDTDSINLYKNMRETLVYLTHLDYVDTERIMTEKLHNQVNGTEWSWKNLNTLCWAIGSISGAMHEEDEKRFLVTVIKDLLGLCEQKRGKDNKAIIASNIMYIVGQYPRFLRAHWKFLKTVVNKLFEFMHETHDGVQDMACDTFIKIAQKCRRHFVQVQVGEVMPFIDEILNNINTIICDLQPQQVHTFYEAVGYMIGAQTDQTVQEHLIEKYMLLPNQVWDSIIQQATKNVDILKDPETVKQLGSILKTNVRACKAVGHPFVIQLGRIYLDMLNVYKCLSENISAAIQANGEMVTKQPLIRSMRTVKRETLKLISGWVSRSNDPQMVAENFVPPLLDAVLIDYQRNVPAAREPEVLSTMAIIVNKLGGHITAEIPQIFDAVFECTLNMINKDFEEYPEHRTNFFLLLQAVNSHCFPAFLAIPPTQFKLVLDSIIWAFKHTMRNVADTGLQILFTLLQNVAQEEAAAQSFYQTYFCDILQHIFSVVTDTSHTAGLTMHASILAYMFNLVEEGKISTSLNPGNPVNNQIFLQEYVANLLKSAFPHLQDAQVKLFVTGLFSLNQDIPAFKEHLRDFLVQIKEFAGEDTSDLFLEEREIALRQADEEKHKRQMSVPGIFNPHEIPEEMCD
row,percent of parent [%],Binder
1,140,GKIEELAQNFETMEVSR [GST-hRio2NES-R F13V]
2,130,GKIEELAQNFETMELSR [GST-hRio2NES-R F13L]
3,150,GKIEELAQNFETMEISR [GST-hRio2NES-R F13I]
4,105,GKIEELAQNFETLEFSR [GST-hRio2NES-R M11L]
